Data on eight molecules can be found in article PMC3642088, “Phosphorylation of CDK9 at Ser175 Enhances HIV Transcription and Is a Marker of Activated P-TEFb in CD4^+ T Lymphocytes” (PLoS Pathogens, 2013).

Where only a bound is given, the exact number is not on record here.

Experiment [1] deals with FLAG-tagged CDK9 (293T cells) (human) (UniProt P50750). The experiment is described as follows: co-IP; anti-FLAG IP from 293T cells stably expressing FLAG-tagged CDK9, with or without transiently transfected HA-tagged Tat, with or without PMA for 1 hr or 2 hrs, Western blot. Background: Immunoblotting shows a protein as a band on a membrane.
Another experiment has as its target BRD4 (UniProt O60885). The experiment is described as follows: anti-FLAG co-IP, Western blot. The following applies: reference: wild type.
The target of experiment [2] is Cyclin T1 (CycT1, hCycT1) (UniProt O60563). The experiment in a line: anti-FLAG co-IP, Western blot. Conditions: reference: wild type.
The target of a further experiment is Tat. The experiment in a line: anti-FLAG co-IP, Western blot. The following applies: reference: wild type; sites S175.
For the next experiment, the target named is FLAG-CDK9 S175A (human) (UniProt P50750). The experiment in a line: co-IP; anti-FLAG IP of FLAG-CDK9 wildtype or mutants from latently infected Jurkat T-cells induced for 16 hr with TNF-α to express Tat, Western blot for BRD4, Tat and CycT1; levels normalised to total CDK9, three experiments.
Experiment [3] deals with FLAG-CDK9 S175D (human) (UniProt P50750). The description is as above.
The target is the same in experiment [4].
The next experiment deals with FLAG-HEXIM1 (UniProt O94992). The experiment is described as follows: co-IP; anti-FLAG IP of FLAG-HEXIM1 from whole cell extracts of 2D10 cells, unstimulated or PMA for 1 h with or without U0126, FLAG peptide elution, Western blot.
Another experiment deals with T1, FLAG-CDK9 T186A (human, UniProt P50750 1-372, T186A).
T1 construct: also called T186A CDK9
The experiment is described as follows: co-IP; anti-FLAG M2 agarose IP of FLAG-CDK9 wildtype or mutants from whole cell extracts (lysis buffer A) of Jurkat 2D10 cells, FLAG peptide elution, Western blot; densitometry normalised to total immunoprecipitated CDK9, five experiments. Conditions: partners not purified.

The target of another experiment is T2, FLAG-CDK9 T186D (human, UniProt P50750 1-372, T186D).
T2 construct: also called T186D CDK9
The experiment is described as above. The following applies: partners not purified.

A further experiment addresses T3, FLAG-CDK9 S175A (human, UniProt P50750 1-372, S175A).
T3 construct: also called S175A CDK9; Ser175Ala
Described as above. The following applies: partners not purified.

Another experiment deals with T4, FLAG-CDK9 S175D (human, UniProt P50750 1-372, S175D).
T4 construct: also called S175D CDK9; Ser175Asp
Described as above. The following applies: partners not purified.

For “HA-tagged Tat (from UniProt P04608 1-86) (natural protein)”, in [1], the percent increase of Tat associated with CDK9 after 1 hr of PMA was found to be 12%, the percent of HEXIM1 released from FLAG-CDK9 on expression of HA-Tat came out at 71% and the percent of LARP7 released from FLAG-CDK9 on expression of HA-Tat turned out to be 82%.

Take “CDK9 (FLAG-CDK9 isoform 1) (from UniProt P50750) S175A”: the percent of reference with BRD4 (sites S175) was determined as 1.9%; in experiment [2] (sites S175), 98.9%; in the experiment with Tat it was 59.2%.

On to “HIV Tat H13L (from UniProt P04608 1-86) (natural protein)”, for which the percent of wildtype association in the experiment with FLAG-CDK9 S175A (human) turned out to be 59.2%. For the same molecule, the percent of wildtype association with FLAG-CDK9 S175D (human) [3] came out at 109%. In the experiment with FLAG-CDK9 S175D (human) [4], the CDK9 kinase activity of the affinity purified FLAG-CDK9 complex in the in vitro RNAP II CTD kinase assay, against wildtype CDK9 came to 159% and the CDK9 kinase activity of the affinity purified FLAG-CDK9 complex in the in vitro autophosphorylation assay, against wildtype CDK9 is 117%.

Take “CDK9 (FLAG-CDK9 isoform 1) (from UniProt P50750) S175D”: the percent of reference in experiment [2] (sites S175) turned out to be 78.9%.

As for “endogenous CDK9 (from UniProt P50750 1-372) (enzyme)”, the percent reduction of association after PMA for 1 h in the experiment with FLAG-HEXIM1 was 30%.

Turning to “CDK9 (FLAG-CDK9 isoform 1) (from UniProt P50750) T186D”, the percent of reference with BRD4 (sites T186) was determined as 61.6%; in experiment [2] (sites T186) it was 49.4%.

B1: HEXIM1 (natural protein, human (endogenous in Jurkat), UniProt O94992 1-359, looked up)
chain: MAEPFLSEYQHQPQTSNCTGAAAVQEELNPERPPGAEERVPEEDSRWQSRAFPQLGGRPGPEGEGSLESQPPPLQTQACPESSCLREGEKGQNGDDSSAGGDFPPPAEVEPTPEAELLAQPCHDSEASKLGAPAAGGEEEWGQQQRQLGKKKHRRRPSKKKRHWKPYYKLTWEEKKKFDEKQSLRASRIRAEMFAKGQPVAPYNTTQFLMDDHDQEEPDLKTGLYSKRAAAKSDDTSDDDFMEEGGEEDGGSDGMGGDGSEFLQRDFSETYERYHTESLQNMSKQELIKEYLELEKCLSRMEDENNRLRLESKRLGGDDARVRELELELDRLRAENLQLLTENELHRQQERAPLSKFGD
notes: source: endogenous, Jurkat T-cell whole cell extract
In the case of B1, the “percent reduction of co-precipitation against wildtype CDK9” value with FLAG-CDK9 T186A and with FLAG-CDK9 T186D was above 99% throughout. Also, the results for the “percent co-immunoprecipitated against wildtype CDK9” value with FLAG-CDK9 S175A and with FLAG-CDK9 S175D were above 90% and 67.5%, respectively.

B2: LARP7 (natural protein, human (endogenous in Jurkat), UniProt Q4G0J3 1-582, looked up)
chain: METESGNQEKVMEEESTEKKKEVEKKKRSRVKQVLADIAKQVDFWFGDANLHKDRFLREQIEKSRDGYVDISLLVSFNKMKKLTTDGKLIARALRSSAVVELDLEGTRIRRKKPLGERPKDEDERTVYVELLPKNVNHSWIERVFGKCGNVVYISIPHYKSTGDPKGFAFVEFETKEQAAKAIEFLNNPPEEAPRKPGIFPKTVKNKPIPALRVVEEKKKKKKKKGRMKKEDNIQAKEENMDTSNTSISKMKRSRPTSEGSDIESTEPQKQCSKKKKKRDRVEASSLPEVRTGKRKRSSSEDAESLAPRSKVKKIIQKDIIKEASEASKENRDIEISTEEEKDTGDLKDSSLLKTKRKHKKKHKERHKMGEEVIPLRVLSKSEWMDLKKEYLALQKASMASLKKTISQIKSESEMETDSGVPQNTGMKNEKTANREECRTQEKVNATGPQFVSGVIVKIISTEPLPGRKQVRDTLAAISEVLYVDLLEGDTECHARFKTPEDAQAVINAYTEINKKHCWKLEILSGDHEQRYWQKILVDRQAKLNQPREKKRGTEKLITKAEKIRLAKTQQASKHIRFSEYD
notes: as for B1
Regarding B2, the “percent reduction of co-precipitation against wildtype CDK9” value in the experiment with FLAG-CDK9 T186A and in the experiment with FLAG-CDK9 T186D was above 99% each time. The “percent co-immunoprecipitated against wildtype CDK9” value in the experiment with FLAG-CDK9 S175A is above 90%; in the experiment with FLAG-CDK9 S175D, 77.2%.
